Source: patent US20130196320A1, “METHOD FOR IMPROVING CLEAVAGE OF DNA BY ENDONUCLEASE SENSITIVE TO METHYLATION” (CELLECTIS, priority 2010, published 2013)

B1: I-CreI: wild-type I-CreI meganuclease (… homing endonuclease), SEQ ID NO: 1, recombinant Cterm His-tag (protein, listed as Chlamydomonas reinhardtii)
chain: MNTKYNKEFLLYLAGFVDGDGSIIAQIKPNQSYKFKHQLSLTFQVTQKTQRRWFLDKLVDEIGVGYVRDRGSVSDYILSEIKPLHNFLTQLQPFLKLKQKQANLVLKIIEQLPSAKESPDKFLEVCTWVDQIAALNDSKTRKTTSETVRAVLDSLSEKKKSSP
modifications: C-terminal His-tag

Assays:
[1] = system: XPC4 target CpG motives in 293H cells; assay: DNA methylation of XPC4 target by bisulfite treatment and sequencing, 5-aza-2-deoxycytidine treatment; type: cell-based, human; settings: for amount of unmethylated C, % of total: one of the two CpG of XPC4 target; for amount of unmethylated C: the other CpG of XPC4 target
Method: FIG. 9: Chromatograms of sequencing reactions at the XPC4 target locus, made after bisulfite treatment. Cells were pre-treated with 5-aza-2-deoxycytidine at 0.2 μM or 1 μM 48 hours before transfection with the XPC4 meganuclease or with an empty vector. The treatment was maintained 48 hours post-transfection. As a control, we used cells not treated with 5-aza-2-deoxycytidine (NT). Two days post transfection, genomic DNA was extracted and treated with bisulfite, which converts cytosine, but not 5-methylcytosine into uracil. DNA from the XPC4 target locus region was amplified by PCR, and sequenced. Sequence of the XPC4 target is indicated on top (XPC4 target), with the two CpG motives being underlined. On the chromatograms, 5-methyl-cytosines appear as cytosines (C), and non methylated cytosines (converted to uracil) as thymines (T). In the presence of 5-aza-2-deoxycytidine, a fraction of the CpG motives is demethylated, resulting in a dual C/T peak.
The human 293H cells (ATCC) were plated at a density of 1.2×10^6 cells per 10 cm dish in complete medium (DMEM supplemented with 2 mM L-glutamine, penicillin (100 IU/ml), streptomycin (100 μg/ml), amphotericin B (Fongizone: 0.25 μg/ml, Invitrogen-Life Science) and 10% FBS) supplemented with 5-aza-deoxycytidine. The next day, cells were transfected with 3 μg of meganuclease expression vector in the presence of 5-aza-deoxycytidine and Lipofectamine 2000 transfection reagent (Invitrogen) according to the manufacturer's protocol.
Cells were pre-treated with 5-aza-deoxycytidine at 0.2 μM or 1 μM 48 hours before transfection and the treatment was maintained 48 hours post-transfection. As a control, cells not treated with 5-aza-2-deoxycytidine (NT) were used. Extraction of genomic DNA was performed 48 hours after transfection.
To assess the level DNA methylation, DNA sequencing was performed after a bisulfite treatment according to the instructions of the manufacturer (EZ DNA methylation-Gold Kit, Zymo Research). After genomic DNA extraction, the XPC4 target locus was amplified by PCR with specific primers

C1234 DNA target = assay: In vitro binding assay, fluorescence anisotropy of fluorescein-labeled C1234 duplex
Method: FIG. 4: Spectrofluorimetric titration of fluorescein-labeled C1234 by I-Cre I wild type. 25 nM of C1234 duplex was incubated with increasing concentrations of I-Cre I [from 0 to 400 nM, only 0-80 nM shown] in binding buffer (10 mM Tris-HCl, 400 mM NaCl, 10 mM CaCl2, 10 mM DTT, pH8) at 25° C. After 30 minutes incubation, the fluorescence anisotropy of the mixture was recorded with a Pherastar Plus (BMG Labtech) operating in fluorescence polarization end point mode with excitation and emission wavelengths set to 495 and 520 nm respectively. Normalized fluorescence anisotropy is plotted as a function of active I-Cre I concentration. Apparent dissociation constant were determined by fitting raw data by an hyperbolic function (Ax=(A∞*[Meganuclease])/(Kd+[Meganuclease]) with Ax, the fluorescence anisotropy value obtained at a given meganuclease concentration, A∞, the fluorescence anisotropy value obtained at saturating concentration of meganuclease and Kd the dissociation constant of the equilibrium studied).
Fluorescein labeled C1234 oligonucleotides were synthesized and HPLC-purified by Eurogentec. To prepare C 1234 duplex corresponding to I-Cre I double strand DNA wild type target, C1234 forward (SEQ ID NO: 31, “a” strand below) labeled with Fluorescein on its 5′ end was mixed with 1 equivalent of C1234_reverse (SEQ ID NO: 32, “b” strand below) in 100 mM Tris-HCl, 50 mM EDTA, 150 mM NaCl, pH8. The mixture was heated to 95° C. for 2 min and then cooled down to 25° C. over 1 hour. C1234 duplex was eventually purified by anion exchange chromatography using a miniQ PE column (GE healthcare) pre-equilibrated with buffer A (20 mM Tris-HCl, pH7.4). Single stranded oligonucleotides and other contaminants were first discarded using a 0 to 360 mM NaCl step gradient and elution of pure C1234 duplex was performed with a 360-1000 mM NaCl linear gradient (5 column volumes). C 1234 duplex and fluorescein final concentrations were assessed by spectrophotometry using their respective extinction coefficients ε260nm=62900 M^−1 cm^−1 and ε495nm=83000 M^−1 cm^−1. As expected, a ratio [C1234 duplex]/[fluorescein]˜1 was obtained. The same procedure was used to prepare the different methylated forms of C 1234 duplex (C 1234_Me full composed of SEQ ID NO: 35+SEQ ID NO: 38, C1234_Me-6a/-5b composed of SEQ ID NO: 33+SEQ ID NO: 36, C1234_Me-3a/-2b composed of SEQ ID NO: 34+SEQ ID NO: 37, C1234_Me-3a composed of SEQ ID NO: 34+SEQ ID NO: 32, C1234_Me-2b composed of SEQ ID NO: 31+SEQ ID NO: 37, respectively where “a” and “b” designate each of the DNA strands; for example C1234 Me-6a/-5b is a duplex with methylations at position −6 on strand “a” and at position −5 on strand “b”, respectively) and the random target corresponding to a stretch of 12 GA repeats, (forward, SEQ ID NO: 39 and reverse, SEQ ID NO: 40). To investigate the binding of I-Cre I to C1234 duplex, 25 nM of C1234 duplex was incubated with increasing concentrations of I-Cre I (from 0 to 400 nM) in binding buffer (10 mM Tris-HCl, 400 mM NaCl, 10 mM CaCl2, 10 mM DTT, pH8) at 25° C. After 30 minutes incubation, the fluorescence anisotropy of the mixture was recorded with a Pherastar Plus (BMG Labtech) operating in fluorescence polarization end point mode with excitation and emission wavelengths set to 495 and 520 nm respectively. Apparent dissociation constants were determined by fitting raw data by an hyperbolic function (Ax=(A∞*[Meganuclease])/(Kd+[Meganuclease]) with Ax, the fluorescence anisotropy value obtained at a given meganuclease concentration, A∞, the fluorescence anisotropy value obtained at saturating concentration of meganuclease and Kd the dissociation constant of the equilibrium studied).

Row | Molecule | amount of unmethylated C, % of total ([1]; 0.2 μM) [%] | amount of unmethylated C, % of total ([1]; 1 μM) [%] | amount of unmethylated C ([1]; 0.2 μM) [%] | amount of unmethylated C ([1]; 1 μM) [%] | affinity compared with unmethylated C1234 (C1234 DNA target; C1234 Me-5b/-2b) | Kd (C1234 DNA target; C1234_Me full (fully methylated)) [µM] | affinity for fully methylated C1234 lower than for unmethylated C1234 (C1234 DNA target; C1234_Me full vs unmethylated) | Kd (C1234 DNA target; C1234_Me-2b) [µM] | Kd (C1234 DNA target; C1234_Me-5b) [µM] | Kd (C1234 DNA target; C1234_Me-5b/-2b) [µM] | Kd (C1234 DNA target; C1234_Me-6a/-3a) [µM] | factor by which methylation affected affinity with respect to unmethylated C1234 (C1234 DNA target; C1234 methylated in position −2b) | factor by which methylation affected affinity with respect to unmethylated C1234 (C1234 DNA target; C1234 methylated in position −5b) | Kd (C1234 DNA target; unmethylated C1234) [µM]
1 | Nc1ncn([C@H]2C[C@H](O)[C@@H](CO)O2)c(=O)n1 [5-aza-2′deoxycytidine, reference compound] | 25 | 36 | 35 | 45 |  |  |  |  |  |  |  |  |  | 
2 | B1 |  |  |  |  | much lower affinity | > 1 | at least 400 times | 0.0408 | 0.024 | > 1 | ≤ 0.0025 | ≤ 10 | ≤ 10 | ≤ 0.0025
